Experimental findings from patent publication US20160010082A1 are described below.

For this assay, the target named is YPet-Mona. Put plainly: flow cytometry of E. coli displaying the construct, 50 nM YPet-Mona; 30 minutes of expression; reference CPX display. (In general: Flow cytometry measures light scatter and fluorescence of single cells or particles in a stream.)
Sequence of YPet-Mona (O89100 263-322): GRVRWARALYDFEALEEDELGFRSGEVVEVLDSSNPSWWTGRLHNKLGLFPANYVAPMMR

B1: eCPX displaying the P2 peptide at the C-terminus (protein)
chain: GQSGQGGQSGQSGDYNKNQYYGITAGPAYRINDWASIYGVVGVGYGKFQTTEYPTYKHDTSDYGFSYGAGLQFNPMENVALDFSYEQSRIRSVDVGTWILSVGYRFGSKSRRATSTVTGGYAQSDAQGQMNKMGGFNLKYRYEEDNSPLGVIGSFTYTEKSRTASGGQSGQPAPSIDRSTKPPL
On to B1, for which the fold improved display level compared to CPX worked out at 9 fold.
